Experimental data as given in IntAct's records for PubMed 29892012.

B1: Ceramide transfer protein (Homo sapiens), Q9Y5P4 (parent)
chain: MSDNQSWNSSGSEEDPETESGPPVERCGVLSKWTNYIHGWQDRWVVLKNNALSYYKSEDETEYGCRGSICLSKAVITPHDFDECRFDISVNDSVWYLRAQDPDHRQQWIDAIEQHKTESGYGSESSLRRHGSMVSLVSGASGYSATSTSSFKKGHSLREKLAEMETFRDILCRQVDTLQKYFDACADAVSKDELQRDKVVEDDEDDFPTTRSDGDFLHSTNGNKEKLFPHVTPKGINGIDFKGEAITFKATTAGILATLSHCIELMVKREDSWQKRLDKETEKKRRTEEAYKNAMTELKKKSHFGGPDYEEGPNSLINEEEFFDAVEAALDRQDKIEEQSQSEKVRLHWPTSLPSGDAFSSVGTHRFVQKPYSRSSSMSSIDLVSASDDVHRFSSQVEEMVQNHMTYSLQDVGGDANWQLVVEEGEMKVYRREVEENGIVLDPLKATHAVKGVTGHEVCNYFWNVDVRNDWETTIENFHVVETLADNAIIIYQTHKRVWPASQRDVLYLSVIRKIPALTENDPETWIVCNFSVDHDSAPLNNRCVRAKINVAMICQTLVSPPEGNQEISRDNILCKITYVANVNPGGWAPASVLRAVAKREYPKFLKRFTSYVQEKTAGKPILF
B2: Protein Largen (Homo sapiens), Q569H4 (parent)
chain: MSAKSKGNPSSSCPAEGPPAASKTKVKEQIKIIVEDLELVLGDLKDVAKELKEVVDQIDTLTSDLQLEDEMTDSSKTDTLNSSSSGTTASSLEKIKVQANAPLIKPPAHPSAILTVLRKPNPPPPPPRLTPVKCEDPKRVVPTANPVKTNGTLLRNGGLPGGPNKIPNGDICCIPNSNLDKAPVQLLMHRPEKDRCPQAGPRERVRFNEKVQYHGYCPDCDTRYNIKNREVHLHSEPVHPPGKIPHQGPPLPPTPHLPPFPLENGGMGISHSNSFPPIRPATVPPPTAPKPQKTILRKSTTTTV
B3: E3 ubiquitin-protein ligase LNX (Homo sapiens), Q8TBB1 (parent)
chain: MNQPESANDPEPLCAVCGQAHSLEENHFYSYPEEVDDDLICHICLQALLDPLDTPCGHTYCTLCLTNFLVEKDFCPMDRKPLVLQHCKKSSILVNKLLNKLLVTCPFREHCTQVLQRCDLEHHFQTSCKGASHYGLTKDRKRRSQDGCPDGCASLTATAPSPEVSAAATISLMTDEPGLDNPAYVSSAEDGQPAISPVDSGRSNRTRARPFERSTIRSRSFKKINRALSVLRRTKSGSAVANHADQGRENSENTTAPEVFPRLYHLIPDGEITSIKINRVDPSESLSIRLVGGSETPLVHIIIQHIYRDGVIARDGRLLPGDIILKVNGMDISNVPHNYAVRLLRQPCQVLWLTVMREQKFRSRNNGQAPDAYRPRDDSFHVILNKSSPEEQLGIKLVRKVDEPGVFIFNVLDGGVAYRHGQLEENDRVLAINGHDLRYGSPESAAHLIQASERRVHLVVSRQVRQRSPDIFQEAGWNSNGSWSPGPGERSNTPKPLHPTITCHEKVVNIQKDPGESLGMTVAGGASHREWDLPIYVISVEPGGVISRDGRIKTGDILLNVDGVELTEVSRSEAVALLKRTSSSIVLKALEVKEYEPQEDCSSPAALDSNHNMAPPSDWSPSWVMWLELPRCLYNCKDIVLRRNTAGSLGFCIVGGYEEYNGNKPFFIKSIVEGTPAYNDGRIRCGDILLAVNGRSTSGMIHACLARLLKELKGRITLTIVSWPGTFL
partner: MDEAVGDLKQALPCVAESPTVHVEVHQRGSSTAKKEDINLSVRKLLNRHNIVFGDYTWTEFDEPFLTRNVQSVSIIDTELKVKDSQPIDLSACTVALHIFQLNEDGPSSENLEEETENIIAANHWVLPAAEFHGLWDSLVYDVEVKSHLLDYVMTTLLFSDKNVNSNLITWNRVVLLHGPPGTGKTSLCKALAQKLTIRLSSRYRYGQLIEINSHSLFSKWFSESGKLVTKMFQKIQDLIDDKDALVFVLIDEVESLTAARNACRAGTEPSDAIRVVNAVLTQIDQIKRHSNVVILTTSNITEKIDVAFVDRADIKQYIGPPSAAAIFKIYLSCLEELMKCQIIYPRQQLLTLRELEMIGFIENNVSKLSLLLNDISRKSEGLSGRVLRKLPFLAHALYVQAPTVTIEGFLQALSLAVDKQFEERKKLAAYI
B4: E3 ubiquitin-protein ligase LNX (Homo sapiens), Q8TBB1 (parent)
chain: B3 chain
partner: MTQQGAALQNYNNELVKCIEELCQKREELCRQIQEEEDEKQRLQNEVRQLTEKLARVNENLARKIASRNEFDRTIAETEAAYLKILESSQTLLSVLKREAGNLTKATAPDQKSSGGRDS
B5: E3 ubiquitin-protein ligase LNX (Homo sapiens), Q8TBB1 (parent)
chain: B3 chain
partner: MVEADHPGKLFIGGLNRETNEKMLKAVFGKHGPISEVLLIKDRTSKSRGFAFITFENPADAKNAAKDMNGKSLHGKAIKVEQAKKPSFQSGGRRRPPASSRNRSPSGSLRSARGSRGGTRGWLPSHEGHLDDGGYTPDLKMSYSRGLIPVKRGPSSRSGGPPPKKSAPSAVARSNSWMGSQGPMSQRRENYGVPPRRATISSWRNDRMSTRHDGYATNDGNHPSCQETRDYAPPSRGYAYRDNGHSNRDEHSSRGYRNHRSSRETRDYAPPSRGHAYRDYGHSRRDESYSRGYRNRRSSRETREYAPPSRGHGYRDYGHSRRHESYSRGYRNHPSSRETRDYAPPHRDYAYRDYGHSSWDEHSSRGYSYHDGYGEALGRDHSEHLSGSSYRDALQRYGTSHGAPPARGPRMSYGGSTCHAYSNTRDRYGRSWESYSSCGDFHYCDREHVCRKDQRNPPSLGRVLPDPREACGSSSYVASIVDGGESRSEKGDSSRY
B6: E3 ubiquitin-protein ligase LNX (Homo sapiens), Q8TBB1 (parent)
chain: B3 chain
partner: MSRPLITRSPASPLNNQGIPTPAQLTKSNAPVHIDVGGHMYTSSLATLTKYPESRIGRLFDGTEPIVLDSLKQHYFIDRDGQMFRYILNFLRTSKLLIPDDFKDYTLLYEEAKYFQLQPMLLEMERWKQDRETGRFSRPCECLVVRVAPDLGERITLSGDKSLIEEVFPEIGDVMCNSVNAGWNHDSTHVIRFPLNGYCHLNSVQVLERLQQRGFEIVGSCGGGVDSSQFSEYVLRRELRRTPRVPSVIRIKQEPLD

Variants of: B1
Settings: with ar6p1_human ARL6IP1, Q15041
Sequence of ar6p1_human ARL6IP1, Q15041 (Q15041 whole entry): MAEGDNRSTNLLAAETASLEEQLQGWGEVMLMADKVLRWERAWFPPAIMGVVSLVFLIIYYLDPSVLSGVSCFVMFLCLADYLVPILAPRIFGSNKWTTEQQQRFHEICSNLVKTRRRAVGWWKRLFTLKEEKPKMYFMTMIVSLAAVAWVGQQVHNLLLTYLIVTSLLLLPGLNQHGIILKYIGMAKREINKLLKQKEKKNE

| effect of a mutation on the interaction | Variant |
| --- | --- |
| with no effect | T166A |

Variants of: B1
Settings: with rtn3_human RTN3, O95197
Sequence of rtn3_human RTN3, O95197 (O95197 whole entry): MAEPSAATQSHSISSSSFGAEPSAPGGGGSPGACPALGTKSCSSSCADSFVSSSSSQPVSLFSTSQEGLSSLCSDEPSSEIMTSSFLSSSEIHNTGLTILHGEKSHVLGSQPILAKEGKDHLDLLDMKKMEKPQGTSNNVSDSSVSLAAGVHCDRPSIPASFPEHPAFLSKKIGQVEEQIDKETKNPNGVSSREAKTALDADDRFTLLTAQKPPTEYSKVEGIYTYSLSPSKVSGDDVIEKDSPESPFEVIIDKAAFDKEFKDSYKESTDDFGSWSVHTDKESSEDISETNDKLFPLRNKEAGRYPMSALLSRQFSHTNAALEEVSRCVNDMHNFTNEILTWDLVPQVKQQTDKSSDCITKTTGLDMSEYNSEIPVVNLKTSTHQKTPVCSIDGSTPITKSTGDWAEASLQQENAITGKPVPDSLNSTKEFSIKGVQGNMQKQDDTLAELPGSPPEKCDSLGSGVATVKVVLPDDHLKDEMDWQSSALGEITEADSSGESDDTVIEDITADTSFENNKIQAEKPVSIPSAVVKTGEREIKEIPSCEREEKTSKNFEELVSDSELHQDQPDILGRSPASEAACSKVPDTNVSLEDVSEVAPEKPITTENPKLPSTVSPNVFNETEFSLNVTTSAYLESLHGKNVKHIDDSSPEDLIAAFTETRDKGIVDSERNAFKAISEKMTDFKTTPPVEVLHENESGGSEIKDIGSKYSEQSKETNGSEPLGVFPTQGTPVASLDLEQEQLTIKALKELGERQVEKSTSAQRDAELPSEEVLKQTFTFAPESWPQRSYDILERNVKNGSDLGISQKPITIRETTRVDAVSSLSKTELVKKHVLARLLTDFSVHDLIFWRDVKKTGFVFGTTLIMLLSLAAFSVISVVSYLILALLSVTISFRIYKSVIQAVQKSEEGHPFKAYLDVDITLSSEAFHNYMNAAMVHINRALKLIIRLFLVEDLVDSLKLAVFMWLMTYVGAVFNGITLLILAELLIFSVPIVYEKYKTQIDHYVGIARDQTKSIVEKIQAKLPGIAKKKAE

| effect of a mutation on the interaction | Variant |
| --- | --- |
| with no effect | T166A |

Variants of: B1
Settings: with rtn4_human RTN4, Q9NQC3
Sequence of rtn4_human RTN4, Q9NQC3 (Q9NQC3 whole entry): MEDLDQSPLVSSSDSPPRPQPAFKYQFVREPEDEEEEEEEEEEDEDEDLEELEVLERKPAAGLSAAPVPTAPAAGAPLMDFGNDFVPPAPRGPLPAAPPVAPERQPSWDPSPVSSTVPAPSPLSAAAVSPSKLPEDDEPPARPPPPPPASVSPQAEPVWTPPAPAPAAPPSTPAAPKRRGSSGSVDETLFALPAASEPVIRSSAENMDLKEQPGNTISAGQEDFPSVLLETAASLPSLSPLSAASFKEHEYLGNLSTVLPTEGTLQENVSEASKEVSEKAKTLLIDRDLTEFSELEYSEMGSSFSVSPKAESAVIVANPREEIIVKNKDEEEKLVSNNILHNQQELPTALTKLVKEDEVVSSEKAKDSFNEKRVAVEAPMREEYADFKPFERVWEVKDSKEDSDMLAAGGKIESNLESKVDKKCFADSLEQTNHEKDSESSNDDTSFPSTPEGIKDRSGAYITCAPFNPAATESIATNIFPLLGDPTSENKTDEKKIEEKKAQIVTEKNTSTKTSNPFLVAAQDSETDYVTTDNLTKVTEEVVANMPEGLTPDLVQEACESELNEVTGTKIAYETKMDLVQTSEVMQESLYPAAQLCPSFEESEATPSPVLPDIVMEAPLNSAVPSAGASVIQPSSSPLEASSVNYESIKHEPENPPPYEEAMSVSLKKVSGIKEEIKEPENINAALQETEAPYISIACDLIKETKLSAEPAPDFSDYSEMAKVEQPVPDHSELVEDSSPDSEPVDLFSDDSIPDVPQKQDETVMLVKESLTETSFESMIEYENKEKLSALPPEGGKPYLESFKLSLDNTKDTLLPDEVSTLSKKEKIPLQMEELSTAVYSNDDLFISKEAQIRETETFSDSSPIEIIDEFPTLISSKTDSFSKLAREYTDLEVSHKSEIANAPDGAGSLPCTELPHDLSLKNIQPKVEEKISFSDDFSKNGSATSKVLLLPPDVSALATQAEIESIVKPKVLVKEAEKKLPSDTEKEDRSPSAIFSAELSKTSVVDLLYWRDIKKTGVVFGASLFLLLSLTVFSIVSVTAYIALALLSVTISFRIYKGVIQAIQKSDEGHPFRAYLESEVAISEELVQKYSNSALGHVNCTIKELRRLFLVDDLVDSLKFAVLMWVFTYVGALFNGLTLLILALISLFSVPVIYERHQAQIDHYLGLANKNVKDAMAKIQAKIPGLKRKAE

| effect of a mutation on the interaction | Variant |
| --- | --- |
| with no effect | T166A |

Variants of: B2
Settings: with abi2_human ABI2, Q9NYB9
Sequence of abi2_human ABI2, Q9NYB9 (Q9NYB9 whole entry): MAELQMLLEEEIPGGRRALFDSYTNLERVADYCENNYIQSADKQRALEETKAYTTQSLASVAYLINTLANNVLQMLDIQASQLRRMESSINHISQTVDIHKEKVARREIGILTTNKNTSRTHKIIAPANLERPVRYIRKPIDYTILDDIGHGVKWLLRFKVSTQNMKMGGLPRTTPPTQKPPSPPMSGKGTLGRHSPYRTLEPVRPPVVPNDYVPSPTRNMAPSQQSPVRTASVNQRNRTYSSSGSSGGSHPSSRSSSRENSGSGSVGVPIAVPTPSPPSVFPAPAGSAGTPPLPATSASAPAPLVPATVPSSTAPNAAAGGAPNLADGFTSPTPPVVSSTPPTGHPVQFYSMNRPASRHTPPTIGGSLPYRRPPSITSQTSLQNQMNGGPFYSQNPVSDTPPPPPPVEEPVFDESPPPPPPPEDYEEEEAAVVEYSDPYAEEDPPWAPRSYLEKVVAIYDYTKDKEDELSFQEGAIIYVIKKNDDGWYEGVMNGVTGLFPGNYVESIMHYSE

| effect of a mutation on the interaction | Variant |
| --- | --- |
| with no effect | MSAKSKGNPSSSCPAEGPPAASKTKVKEQIKIIVEDLELVLGDLKDVAKELKEVVDQIDTLTSDLQLEDEMTDSSKTDTLNSSSSGTTASSLEKIKVPANAPLIKPPAHPSAILTVLRKPNPPPPPPRLTPVKCEDPKRVVPTANPVKTNGTLLRNGGLPGGPNKIPNGDICCIPNSNLDKAPVQLLMHRPEKDRCPQAGPRERVRFNEKVQYHGYCPDCDTRYNIKNREVHLHSEPVHPPGKIPHQGPPLPPTPHLPPFPLENGGMGISHSNSFPPIRPATVPPPTAPKPQKTILRKSTTTTV [Q98P] |

Variants of: B3
Settings: with pch2_human TRIP13, Q15645

| effect of a mutation on the interaction | Variant |
| --- | --- |
| disrupting interaction strength | E295K |

Variants of: B4
Settings: with ssna1_human SSNA1, O43805

| effect of a mutation on the interaction | Variant |
| --- | --- |
| disrupting interaction strength | E295K |

Variants of: B5
Settings: with rby1a_human RBMY1A1, P0DJD3

| effect of a mutation on the interaction | Variant |
| --- | --- |
| disrupting interaction strength | E295K |

Variants of: B6
Settings: with kctd1_human KCTD1, Q719H9

| effect of a mutation on the interaction | Variant |
| --- | --- |
| disrupting interaction strength | E295K |
